{"source": "paper PMC12056208", "binders": {"B1": {"name": "Microhomology DNA for Pol mu (dsDNA)", "DNA 1": "GGTGCAGCACAGTGC", "DNA 2": "ACTGTGCTGCACC", "DNA 3": "GACTGCACGGCAGC", "DNA 4": "GCCGTGCAGTC"}, "B2": {"name": "Y-shaped 42-55 DNA (dsDNA)", "DNA 1": "CGCGCCCAGCTTTCCCAGCTAATAAACTAAAAACTATTATTATGGCCGCACGCGT", "DNA 2": "ACGCGTGCGGCCATAATAATAGTTTTTAGTTTATTGGGCGCG", "modifications": "5' biotin on strand 1"}}, "key": {"[1]": {"biological_target": "T1, Ku70;Ku80;DNA polymerase mu (Homo sapiens?;Homo sapiens?;Homo …, UniProt P12956;P13010;Q9NP87 1-609;1-732;1-494, ||)", "T1 sequence (P12956 whole entry, chain 1 of 3)": "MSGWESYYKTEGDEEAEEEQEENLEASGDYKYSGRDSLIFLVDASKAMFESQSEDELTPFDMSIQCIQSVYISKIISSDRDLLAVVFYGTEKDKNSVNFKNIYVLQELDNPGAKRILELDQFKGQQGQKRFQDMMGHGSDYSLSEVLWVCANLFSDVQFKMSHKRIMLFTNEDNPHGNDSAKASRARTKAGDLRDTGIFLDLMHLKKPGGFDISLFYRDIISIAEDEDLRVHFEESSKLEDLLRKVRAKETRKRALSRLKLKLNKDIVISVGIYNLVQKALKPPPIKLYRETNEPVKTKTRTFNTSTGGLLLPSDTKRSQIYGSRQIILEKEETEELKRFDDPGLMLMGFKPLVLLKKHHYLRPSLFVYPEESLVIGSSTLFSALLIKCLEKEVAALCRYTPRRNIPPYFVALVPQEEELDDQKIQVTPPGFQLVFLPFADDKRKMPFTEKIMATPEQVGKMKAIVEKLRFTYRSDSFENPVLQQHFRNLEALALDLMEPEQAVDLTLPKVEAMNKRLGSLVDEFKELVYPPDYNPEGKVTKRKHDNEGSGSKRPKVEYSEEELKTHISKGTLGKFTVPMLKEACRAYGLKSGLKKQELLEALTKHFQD", "T1 sequence (P13010 whole entry, chain 2 of 3)": "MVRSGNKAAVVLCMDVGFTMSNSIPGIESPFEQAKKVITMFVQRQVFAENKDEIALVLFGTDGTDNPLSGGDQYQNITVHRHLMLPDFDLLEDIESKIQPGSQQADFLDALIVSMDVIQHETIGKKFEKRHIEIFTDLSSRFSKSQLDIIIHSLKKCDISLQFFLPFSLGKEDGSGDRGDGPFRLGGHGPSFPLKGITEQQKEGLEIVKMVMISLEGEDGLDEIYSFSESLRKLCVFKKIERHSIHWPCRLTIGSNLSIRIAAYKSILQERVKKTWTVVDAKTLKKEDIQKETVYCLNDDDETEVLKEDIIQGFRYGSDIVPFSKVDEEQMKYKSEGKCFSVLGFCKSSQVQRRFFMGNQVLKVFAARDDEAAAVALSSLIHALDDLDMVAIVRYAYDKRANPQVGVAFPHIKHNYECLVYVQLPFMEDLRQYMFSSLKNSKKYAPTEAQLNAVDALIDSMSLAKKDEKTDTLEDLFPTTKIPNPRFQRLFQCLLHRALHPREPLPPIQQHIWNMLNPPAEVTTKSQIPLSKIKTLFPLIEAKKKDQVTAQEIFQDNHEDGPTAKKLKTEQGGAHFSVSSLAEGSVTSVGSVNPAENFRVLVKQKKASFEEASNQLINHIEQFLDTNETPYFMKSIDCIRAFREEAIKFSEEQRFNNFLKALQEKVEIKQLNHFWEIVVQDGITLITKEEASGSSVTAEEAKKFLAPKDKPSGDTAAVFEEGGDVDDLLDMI", "T1 sequence (Q9NP87 whole entry, chain 3 of 3)": "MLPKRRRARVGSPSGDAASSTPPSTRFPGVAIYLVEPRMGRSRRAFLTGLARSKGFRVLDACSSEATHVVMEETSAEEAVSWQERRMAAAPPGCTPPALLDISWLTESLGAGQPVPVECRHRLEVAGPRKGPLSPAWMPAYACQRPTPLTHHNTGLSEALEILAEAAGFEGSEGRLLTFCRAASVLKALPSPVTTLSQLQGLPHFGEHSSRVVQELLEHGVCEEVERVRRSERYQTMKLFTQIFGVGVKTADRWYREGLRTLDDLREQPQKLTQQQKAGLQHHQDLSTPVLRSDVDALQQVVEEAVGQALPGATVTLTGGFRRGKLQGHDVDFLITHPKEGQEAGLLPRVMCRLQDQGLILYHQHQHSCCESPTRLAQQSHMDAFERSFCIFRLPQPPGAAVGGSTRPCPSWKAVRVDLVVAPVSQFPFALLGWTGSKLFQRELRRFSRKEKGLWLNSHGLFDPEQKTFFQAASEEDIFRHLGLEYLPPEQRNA", "details": "protein: recombinant;recombinant;recombinant; copies: 1;1;1; two duplexes: S3/S6 13 bp with 3' overhang GC on S3; S5/S4 11 bp with 3' overhang AGC on S5; GC microhomology between overhangs"}, "[2]": {"biological_target": "Ku70;Ku80;DNA polymerase lambda (Homo sapiens?;Homo sapiens?;Homo …, UniProt P12956;P13010;Q9UGP5 1-609;1-732;1-575, ||)", "sequence (P12956 whole entry, chain 1 of 3)": "as the sequence (P12956 whole entry, chain 1 of 3) above", "sequence (P13010 whole entry, chain 2 of 3)": "as the sequence (P13010 whole entry, chain 2 of 3) above", "sequence (Q9UGP5 whole entry, chain 3 of 3)": "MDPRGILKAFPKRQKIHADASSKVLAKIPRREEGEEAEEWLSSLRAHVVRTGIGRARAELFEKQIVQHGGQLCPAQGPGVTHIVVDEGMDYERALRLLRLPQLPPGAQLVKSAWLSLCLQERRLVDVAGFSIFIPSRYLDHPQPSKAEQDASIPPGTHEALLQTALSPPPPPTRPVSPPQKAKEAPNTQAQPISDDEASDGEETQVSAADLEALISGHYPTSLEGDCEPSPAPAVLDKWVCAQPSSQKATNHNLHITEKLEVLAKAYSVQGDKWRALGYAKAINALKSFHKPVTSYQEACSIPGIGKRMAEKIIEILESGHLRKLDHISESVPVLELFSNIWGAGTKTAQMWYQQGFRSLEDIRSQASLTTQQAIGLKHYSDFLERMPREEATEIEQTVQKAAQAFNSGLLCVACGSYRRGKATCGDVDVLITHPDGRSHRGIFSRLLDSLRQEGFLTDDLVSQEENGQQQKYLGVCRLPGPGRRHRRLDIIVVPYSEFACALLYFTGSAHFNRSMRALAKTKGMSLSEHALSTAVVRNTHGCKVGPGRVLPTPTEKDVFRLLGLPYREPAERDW", "details": "protein: recombinant;recombinant;recombinant; copies: 1;1;1; label: biotin; fork: 35 bp duplex (1:21-55 with 2:1-35), 5' tail 20 nt on strand 1, 3' tail 7 nt on strand 2; the tail ends (1:1-7, 2:36-42) are also complementary"}, "[3]": {"biological_target": "T1, Ku70;Ku80;DNA polymerase mu", "details": "protein: recombinant;recombinant;recombinant; copies: 1;1;1; label: biotin; fork: 35 bp duplex (1:21-55 with 2:1-35), 5' tail 20 nt on strand 1, 3' tail 7 nt on strand 2; the tail ends (1:1-7, 2:36-42) are also complementary"}, "Ku70;Ku80": {"biological_target": "Ku70;Ku80 (Homo sapiens?;Homo sapiens?, UniProt P12956;P13010 1-609;1-732, |)", "sequence (P12956 whole entry, chain 1 of 2)": "as the sequence (P12956 whole entry, chain 1 of 3) above", "sequence (P13010 whole entry, chain 2 of 2)": "as the sequence (P13010 whole entry, chain 2 of 3) above", "details": "protein: recombinant;recombinant; copies: 1;1; label: biotin; fork: 35 bp duplex (1:21-55 with 2:1-35), 5' tail 20 nt on strand 1, 3' tail 7 nt on strand 2; the tail ends (1:1-7, 2:36-42) are also complementary"}}, "note": "Where two headings read alike, the source gives them in different places."}
{"binder": "B1", "values": [{"measurement": "binding result", "setting": "[1]", "value": "binds"}]}
{"binder": "B2", "values": [{"measurement": "binding result", "setting": "[2]", "value": "binds"}, {"measurement": "binding result", "setting": "[3]", "value": "binds"}, {"measurement": "binding result", "setting": "Ku70;Ku80", "value": "binds"}]}
